Assay results taken from patent publication US9284543B2, “Neutral active soluble truncated PH20 polypeptides and uses thereof” (Halozyme, Inc., priority 2008, dated 2016).

B1: SPAM1-EEPQ: C-terminally truncated human PH20, precursor 479 aa (SEQ ID NO:21), mature 444 aa (SEQ ID NO:73) (protein, listed as Homo sapiens)
chain 1: MGVLKFKHIFFRSFVKSSGVSQIVFTFLLIPCCLTLNFRAPPVIPNVPFLWAWNAPSEFCLGKFDEPLDMSLFSFIGSPRINATGQGVTIFYVDRLGYYPYIDSITGVTVNGGIPQKISLQDHLDKAKKDITFYMPVDNLGMAVIDWEEWRPTWARNWKPKDVYKNRSIELVQQQNVQLSLTEATEKAKQEFEKAGKDFLVETIKLGKLLRPNHLWGYYLFPDCYNHHYKKPGYNGSCFNVEIKRNDDLSWLWNESTALYPSIYLNTQQSPVAATLYVRNRVREAIRVSKIPDAKSPLPVFAYTRIVFTDQVLKFLSQDELVYTFGETVALGASGIVIWGTLSIMRSMKSCLLLDNYMETILNPYIINVTLAAKMCSQVLCQEQGVCIRKNWNSSDYLHLNPDNFAIQLEKGGKFTVRGKPTLEDLEQFSEKFYCSCYSTLSCKEKADVKDTDAVDVCIADGVCIDAFLKPPMETEEPQ
chain 2: MGVLKFKHIFFRSFVKSSGVSQIVFTFLLIPCCLTLNFRAPPVIPNVPFLWAWNAPSEFCLGKFDEPLDMSLFSFIGSPRINATGQGVTIFYVDRLGYYPYIDSITGVTVNGGIPQKISLQDHLDKAKKDITFYMPVDNLGMAVIDWEEWRPTWARNWKPKDVYKNRSIELVQQQNVQLSLTEATEKAKQEFEKAGKDFLVETIKLGKLLRPNHLWGYYLFPDCYNHHYKKPGYNGSCFNVEIKRNDDLSWLWNESTALYPSIYLNTQQSPVAATLYVRNRVREAIRVSKIPDAKSPLPVFAYTRIVFTDQVLKFLSQDELVYTFGETVALGASGIVIWGTLSIMRSMKSCLLLDNYMETILNPYIINVTLAAKMCSQVLCQEQGVCIRKNWNSSDYLHLNPDNFAIQLEKGGKFTVRGKPTLEDLEQFSEKFYCSCYSTLSCKEKADVKDTDAVDVCIADGVCIDAFLKPPMETEEPQ
modifications: HuPH20 precursor 1-479; Mature HuPH20 36-479
B2: SPAM1-TEEP: C-terminally truncated human PH20, precursor 478 aa (SEQ ID NO:22), mature 443 aa (SEQ ID NO:74) (protein, listed as Homo sapiens)
chain 1: MGVLKFKHIFFRSFVKSSGVSQIVFTFLLIPCCLTLNFRAPPVIPNVPFLWAWNAPSEFCLGKFDEPLDMSLFSFIGSPRINATGQGVTIFYVDRLGYYPYIDSITGVTVNGGIPQKISLQDHLDKAKKDITFYMPVDNLGMAVIDWEEWRPTWARNWKPKDVYKNRSIELVQQQNVQLSLTEATEKAKQEFEKAGKDFLVETIKLGKLLRPNHLWGYYLFPDCYNHHYKKPGYNGSCFNVEIKRNDDLSWLWNESTALYPSIYLNTQQSPVAATLYVRNRVREAIRVSKIPDAKSPLPVFAYTRIVFTDQVLKFLSQDELVYTFGETVALGASGIVIWGTLSIMRSMKSCLLLDNYMETILNPYIINVTLAAKMCSQVLCQEQGVCIRKNWNSSDYLHLNPDNFAIQLEKGGKFTVRGKPTLEDLEQFSEKFYCSCYSTLSCKEKADVKDTDAVDVCIADGVCIDAFLKPPMETEEP
chain 2: LNFRAPPVIPNVPFLWAWNAPSEFCLGKFDEPLDMSLFSFIGSPRINATGQGVTIFYVDRLGYYPYIDSITGVTVNGGIPQKISLQDHLDKAKKDITFYMPVDNLGMAVIDWEEWRPTWARNWKPKDVYKNRSIELVQQQNVQLSLTEATEKAKQEFEKAGKDFLVETIKLGKLLRPNHLWGYYLFPDCYNHHYKKPGYNGSCFNVEIKRNDDLSWLWNESTALYPSIYLNTQQSPVAATLYVRNRVREAIRVSKIPDAKSPLPVFAYTRIVFTDQVLKFLSQDELVYTFGETVALGASGIVIWGTLSIMRSMKSCLLLDNYMETILNPYIINVTLAAKMCSQVLCQEQGVCIRKNWNSSDYLHLNPDNFAIQLEKGGKFTVRGKPTLEDLEQFSEKFYCSCYSTLSCKEKADVKDTDAVDVCIADGVCIDAFLKPPMETEEP
modifications: HuPH20 precursor 1-478; Mature HuPH20 36-478
B3: SPAM1-ETEE: C-terminally truncated human PH20, precursor 477 aa (SEQ ID NO:23), mature 442 aa (SEQ ID NO:75) (protein, listed as Homo sapiens)
chain 1: MGVLKFKHIFFRSFVKSSGVSQIVFTFLLIPCCLTLNFRAPPVIPNVPFLWAWNAPSEFCLGKFDEPLDMSLFSFIGSPRINATGQGVTIFYVDRLGYYPYIDSITGVTVNGGIPQKISLQDHLDKAKKDITFYMPVDNLGMAVIDWEEWRPTWARNWKPKDVYKNRSIELVQQQNVQLSLTEATEKAKQEFEKAGKDFLVETIKLGKLLRPNHLWGYYLFPDCYNHHYKKPGYNGSCFNVEIKRNDDLSWLWNESTALYPSIYLNTQQSPVAATLYVRNRVREAIRVSKIPDAKSPLPVFAYTRIVFTDQVLKFLSQDELVYTFGETVALGASGIVIWGTLSIMRSMKSCLLLDNYMETILNPYIINVTLAAKMCSQVLCQEQGVCIRKNWNSSDYLHLNPDNFAIQLEKGGKFTVRGKPTLEDLEQFSEKFYCSCYSTLSCKEKADVKDTDAVDVCIADGVCIDAFLKPPMETEE
chain 2: LNFRAPPVIPNVPFLWAWNAPSEFCLGKFDEPLDMSLFSFIGSPRINATGQGVTIFYVDRLGYYPYIDSITGVTVNGGIPQKISLQDHLDKAKKDITFYMPVDNLGMAVIDWEEWRPTWARNWKPKDVYKNRSIELVQQQNVQLSLTEATEKAKQEFEKAGKDFLVETIKLGKLLRPNHLWGYYLFPDCYNHHYKKPGYNGSCFNVEIKRNDDLSWLWNESTALYPSIYLNTQQSPVAATLYVRNRVREAIRVSKIPDAKSPLPVFAYTRIVFTDQVLKFLSQDELVYTFGETVALGASGIVIWGTLSIMRSMKSCLLLDNYMETILNPYIINVTLAAKMCSQVLCQEQGVCIRKNWNSSDYLHLNPDNFAIQLEKGGKFTVRGKPTLEDLEQFSEKFYCSCYSTLSCKEKADVKDTDAVDVCIADGVCIDAFLKPPMETEE
modifications: HuPH20 precursor 1-477; Mature HuPH20 36-477
B4: SPAM1-METE: C-terminally truncated human PH20, precursor 476 aa (SEQ ID NO:24), mature 441 aa (SEQ ID NO:76) (protein, listed as Homo sapiens)
chain 1: MGVLKFKHIFFRSFVKSSGVSQIVFTFLLIPCCLTLNFRAPPVIPNVPFLWAWNAPSEFCLGKFDEPLDMSLFSFIGSPRINATGQGVTIFYVDRLGYYPYIDSITGVTVNGGIPQKISLQDHLDKAKKDITFYMPVDNLGMAVIDWEEWRPTWARNWKPKDVYKNRSIELVQQQNVQLSLTEATEKAKQEFEKAGKDFLVETIKLGKLLRPNHLWGYYLFPDCYNHHYKKPGYNGSCFNVEIKRNDDLSWLWNESTALYPSIYLNTQQSPVAATLYVRNRVREAIRVSKIPDAKSPLPVFAYTRIVFTDQVLKFLSQDELVYTFGETVALGASGIVIWGTLSIMRSMKSCLLLDNYMETILNPYIINVTLAAKMCSQVLCQEQGVCIRKNWNSSDYLHLNPDNFAIQLEKGGKFTVRGKPTLEDLEQFSEKFYCSCYSTLSCKEKADVKDTDAVDVCIADGVCIDAFLKPPMETE
chain 2: LNFRAPPVIPNVPFLWAWNAPSEFCLGKFDEPLDMSLFSFIGSPRINATGQGVTIFYVDRLGYYPYIDSITGVTVNGGIPQKISLQDHLDKAKKDITFYMPVDNLGMAVIDWEEWRPTWARNWKPKDVYKNRSIELVQQQNVQLSLTEATEKAKQEFEKAGKDFLVETIKLGKLLRPNHLWGYYLFPDCYNHHYKKPGYNGSCFNVEIKRNDDLSWLWNESTALYPSIYLNTQQSPVAATLYVRNRVREAIRVSKIPDAKSPLPVFAYTRIVFTDQVLKFLSQDELVYTFGETVALGASGIVIWGTLSIMRSMKSCLLLDNYMETILNPYIINVTLAAKMCSQVLCQEQGVCIRKNWNSSDYLHLNPDNFAIQLEKGGKFTVRGKPTLEDLEQFSEKFYCSCYSTLSCKEKADVKDTDAVDVCIADGVCIDAFLKPPMETE
modifications: HuPH20 precursor 1-476; Mature HuPH20 36-476
B5: SPAM1-PMET: C-terminally truncated human PH20, precursor 475 aa (SEQ ID NO:25), mature 440 aa (SEQ ID NO:77) (protein, listed as Homo sapiens)
chain 1: MGVLKFKHIFFRSFVKSSGVSQIVFTFLLIPCCLTLNFRAPPVIPNVPFLWAWNAPSEFCLGKFDEPLDMSLFSFIGSPRINATGQGVTIFYVDRLGYYPYIDSITGVTVNGGIPQKISLQDHLDKAKKDITFYMPVDNLGMAVIDWEEWRPTWARNWKPKDVYKNRSIELVQQQNVQLSLTEATEKAKQEFEKAGKDFLVETIKLGKLLRPNHLWGYYLFPDCYNHHYKKPGYNGSCFNVEIKRNDDLSWLWNESTALYPSIYLNTQQSPVAATLYVRNRVREAIRVSKIPDAKSPLPVFAYTRIVFTDQVLKFLSQDELVYTFGETVALGASGIVIWGTLSIMRSMKSCLLLDNYMETILNPYIINVTLAAKMCSQVLCQEQGVCIRKNWNSSDYLHLNPDNFAIQLEKGGKFTVRGKPTLEDLEQFSEKFYCSCYSTLSCKEKADVKDTDAVDVCIADGVCIDAFLKPPMET
chain 2: LNFRAPPVIPNVPFLWAWNAPSEFCLGKFDEPLDMSLFSFIGSPRINATGQGVTIFYVDRLGYYPYIDSITGVTVNGGIPQKISLQDHLDKAKKDITFYMPVDNLGMAVIDWEEWRPTWARNWKPKDVYKNRSIELVQQQNVQLSLTEATEKAKQEFEKAGKDFLVETIKLGKLLRPNHLWGYYLFPDCYNHHYKKPGYNGSCFNVEIKRNDDLSWLWNESTALYPSIYLNTQQSPVAATLYVRNRVREAIRVSKIPDAKSPLPVFAYTRIVFTDQVLKFLSQDELVYTFGETVALGASGIVIWGTLSIMRSMKSCLLLDNYMETILNPYIINVTLAAKMCSQVLCQEQGVCIRKNWNSSDYLHLNPDNFAIQLEKGGKFTVRGKPTLEDLEQFSEKFYCSCYSTLSCKEKADVKDTDAVDVCIADGVCIDAFLKPPMET
modifications: HuPH20 precursor 1-475; Mature HuPH20 36-475

Key:
CHO-S cells = assay: Western blot analysis of PH20 expression in media and cells after transient expression; format: cell-based, Chinese Hamster; conditions: media versus cells
How it was run: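 PH20 expression and solubility were judged by anti-PH20 Western blot of non-reduced media and cell fractions, with expression shown by a ~66 kDa band. Samples came from CHO-S cells transiently transfected (GeneJuice) with mutant PH20-HZ24 DNA and cultured 48-72 h. GPI-anchored mutants were cleaved with PI-PLC to release soluble protein.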

[1] = Microtiter hyaluronidase activity assay with biotinylated-hyaluronic acid; format: biochemical; conditions: Table 6, 72 hour post transfection supernatant

Molecule | Expressed in Media (CHO-S cells) | pH 5.5 Activity [1] [Units/ml] | pH 7.4 Activity [1] [Units/ml]
B1 | YES | 2.0745 | 1.917
B2 | YES | 1.584 | 1.764
B3 | YES | 2.0475 | 2.088
B4 | YES | 1.278 | 1.332
B5 | YES | 2.0925 | 2.223
